Measurements taken from article PMC3299805 (Immunity, 2012).
Where two headings read alike, the source gives them in different places.

Assays:
[1] = target: T1, JAK2 catalytic domain, JAK2JH1 (UniProt O60674 840-1128); assay: steady-state enzyme kinetics
[2] = target: T1, JAK2 catalytic domain, JAK2JH1; assay: steady-state enzyme kinetics; remark: listed apart in the source
[3] = target: T1, JAK2 catalytic domain, JAK2JH1; assay: cell-based or functional assay

T1 sequence (O60674 840-1128): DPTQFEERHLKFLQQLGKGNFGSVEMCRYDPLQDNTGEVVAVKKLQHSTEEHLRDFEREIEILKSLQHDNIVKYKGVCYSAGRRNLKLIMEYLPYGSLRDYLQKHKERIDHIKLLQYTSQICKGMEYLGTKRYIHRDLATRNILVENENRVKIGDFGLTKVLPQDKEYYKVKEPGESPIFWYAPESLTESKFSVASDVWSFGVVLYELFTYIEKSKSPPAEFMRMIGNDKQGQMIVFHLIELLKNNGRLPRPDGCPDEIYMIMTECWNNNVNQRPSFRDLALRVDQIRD

- Ki [1]: 1500 ± 700 nM
- Ki [2]: 1200 ± 300 nM
- IC50 of inhibition of the kinase domain's activity (Figure 2A) [3]: 1500 nM
B1: SOCS3_(22–225)ΔPEST in complex with elongins B and C (complex)
chain 1: LKTFSSKSEYQLVVNAVRKLQESGFYWSAVTGGEANLLLSAEPAGTFLIRDSSDQRHFFTLSVKTQSGTKNLRIQCEGGSFSLQSDPRSTQPVPRFDCVLKLVHHYMGSGSGSGSAYYIYSGGEKIPLVLSRPLSSNVATLQHLCRKTVNGHLDSYEKVTQLPGPIREFLDQYDAPL
chain 2: MDVFLMIRRHKTTIFTDAKESSTVFELKRIVEGILKRPPDEQRLYKDDQLLDDGKTLGECGFTSQTARPQAPATVGLAFRADDTFEALCIEPFSSPPELPDVMKPQDSGSSANEQAVQ
chain 3: MYVKLISSDGHEFIVKREHALTSGTIKAMLSGPGQFAENETNEVNFREIPSHVLSKVCMYFTYKVRYTNSSTEIPEFPIAPEIALELLMAANFLDC
